Source: the supplement of paper PMC10724198
± gives the standard deviation of the averaged measurements.

Tests used:
Saccharomyces cerevisiae [1] = experiment: protein stability index of tFT-peptide fusion (C-terminal peptide) (PSI (0-1 scale)); higher = more stable (slower turnover)
Description: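 MPS profiling in S. cerevisiae of the tFT-X12 degron library: putative degron peptides plus stable controls, 12 aa, fused to the C-terminus of a sfGFP-mCherry timer. Cells are FACS-sorted into 8 mCherry/sfGFP bins and deep-sequenced. PSI runs from 0 (unstable) to 1 (stable). Backgrounds are wild type, das1Δ and doa10Δ at 30 °C, and wild type, das1Δ, cdc34-1 and cdc53-1 at 37 °C; 2-3 technical replicates each.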

Saccharomyces cerevisiae [2] = experiment: as above; conditions: genetic background: wild type; temperature: 30 C
[3] = genetic background: cdc34-1, temperature: 37 C
[4] = genetic background: cdc53-1, temperature: 37 C
[5] = genetic background: das1 deletion, temperature: 30 C
[6] = genetic background: das1 deletion, temperature: 37 C
[7] = genetic background: doa10 deletion, temperature: 30 C
[8] = genetic background: wild type, temperature: 30 C
[9] = genetic background: wild type, temperature: 37 C
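Also: PSI is a weighted mean of sequencing reads over stability bins, variants kept only with over 10 reads, mCherry proximal and sfGFP distal, peptide attached via GGGS linker.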

Row | Sequence | protein stability index (Saccharomyces cerevisiae [1]; [3]) | protein stability index (Saccharomyces cerevisiae [1]; [4]) | protein stability index (Saccharomyces cerevisiae [1]; [5]) | protein stability index (Saccharomyces cerevisiae [1]; [6]) | protein stability index (Saccharomyces cerevisiae [1]; [7]) | protein stability index (Saccharomyces cerevisiae [1]; [8]) | protein stability index (Saccharomyces cerevisiae [1]; [9]) | protein stability index (Saccharomyces cerevisiae [2])
1 | IKSLLGCWHKHY | 0.679 ± 0.017 | 0.732 ± 0.0077 | 0.647 ± 0.031 | 0.7145 ± 0.0066 | 0.279 ± 0.028 | 0.303 ± 0.057 | 0.574 ± 0.04 | 0.479 ± 0.018
2 | SFFFTLLICFLF | 0.161 ± 0.017 | 0.107 ± 0.0062 | 0.234 ± 0.0085 | 0.312 ± 0.0082 | 0.26 ± 0.021 | 0.166 ± 0.028 | 0.244 ± 0.018 | 0.253 ± 0.011
3 | PHGASLCVPPSP | 0.675 ± 0.025 | 0.739 ± 0.0082 | 0.647 ± 0.0089 | 0.7271 ± 0.0072 | 0.645 ± 0.02 | 0.651 ± 0.014 | 0.69931 ± 2.1e-06 | 0.491 ± 0.0074
4 | GLVWSKCFFIVG | 0.637 ± 0.041 | 0.705 ± 0.016 | 0.547 ± 0.014 | 0.7105 ± 0.0018 | 0.2675 ± 0.0018 | 0.295 ± 0.022 | 0.528 ± 0.018 | 0.407 ± 0.033
5 | FFCVLGLSFFCL | 0.609 ± 0.065 | 0.618 ± 0.016 | 0.568 ± 0.021 | 0.58942 ± 0.00014 | 0.554 ± 0.039 | 0.549 ± 0.021 | 0.566 ± 0.016 | 0.542 ± 0.17
6 | SCYDYVILLQLS | 0.506 ± 0.051 | 0.65547 ± 0.00031 | 0.435 ± 0.04 | 0.619 ± 0.025 | 0.178 ± 0.01 | 0.213 ± 0.042 | 0.393 ± 0.0047 | 0.304 ± 0.026
7 | QERKILGRIKQA | 0.51 ± 0.078 | 0.6853 ± 0.00099 | 0.651 ± 0.05 | 0.7081 ± 0.0052 | 0.0853 ± 0.0029 | 0.0987 ± 0.035 | 0.161 ± 0.026 | 0.265 ± 0.12
8 | FLIVLLVIFFGF | 0.275 ± 0.0072 | 0.387 ± 0.019 | 0.276 ± 0.023 | 0.367 ± 0.023 | 0.275 ± 0.018 | 0.269 ± 0.04 | 0.357 ± 0.018 | 0.324 ± 0.006
9 | PFFFIFVLPFVF | 0.456 ± 0.045 | 0.51212 ± 0.00041 | 0.366 ± 0.024 | 0.524 ± 0.0093 | 0.318 ± 0.027 | 0.309 ± 0.041 | 0.465 ± 0.0074 | 0.402 ± 0.011
10 | WLFASCVFFWSS | 0.447 ± 0.045 | 0.502 ± 0.0068 | 0.386 ± 0.026 | 0.525 ± 0.015 | 0.355 ± 0.0086 | 0.37 ± 0.0092 | 0.483 ± 0.011 | 0.426 ± 0.0054
11 | SGWGGGTWVKMG | 0.537 ± 0.019 | 0.721 ± 0.046 | 0.662 ± 0.024 | 0.76 ± 0.011 | 0.113 ± 0.013 | 0.12 ± 0.013 | 0.191 ± 0.018 | 0.3093 ± 0.0025
12 | GELDVRKLLKYF | 0.688 ± 0.02 | 0.718 ± 0.043 | 0.669 ± 0.011 | 0.768 ± 0.019 | 0.154 ± 0.034 | 0.172 ± 0.036 | 0.383 ± 0.0041 | 0.342 ± 0.086
13 | YSGRYRTLVRCW | 0.291 ± 0.011 | 0.366 ± 0.039 | 0.265 ± 0.037 | 0.4426 ± 0.0032 | 0.199 ± 0.0059 | 0.236 ± 0.033 | 0.384 ± 0.02 | 0.33 ± 0.015
14 | LSQPGWFKCCLS | 0.653 ± 0.014 | 0.737 ± 0.05 | 0.662 ± 0.029 | 0.7677 ± 0.00079 | 0.308 ± 0.023 | 0.326 ± 0.023 | 0.463 ± 0.029 | 0.42 ± 0.013
15 | FILLHLLGTIRS | 0.433 ± 0.02 | 0.487 ± 0.0072 | 0.372 ± 0.031 | 0.502 ± 0.023 | 0.337 ± 0.016 | 0.352 ± 0.026 | 0.4948 ± 0.0018 | 0.438 ± 0.016
16 | PALPTPPVSPSP | 0.613 ± 0.092 | 0.667 ± 0.11 | 0.256 ± 0.025 | 0.465 ± 0.0057 | 0.243 ± 0.014 | 0.265 ± 0.022 | 0.43648 ± 0.00011 | 0.333 ± 0.013
17 | LFSFVCLVFFLW | 0.312 ± 0.017 | 0.375 ± 0.006 | 0.291 ± 0.03 | 0.441 ± 0.0094 | 0.306 ± 0.032 | 0.27 ± 0.026 | 0.4178 ± 0.00065 | 0.38 ± 0.07
18 | LFMLHFLAVLRY | 0.124 ± 0.054 | 0.1407 ± 0.00041 | 0.272 ± 0.037 | 0.3358 ± 0.003 | 0.337 ± 0.017 | 0.242 ± 0.027 | 0.311 ± 0.011 | 0.308 ± 0.099
19 | FRFSSLLYILLS | 0.223 ± 0.067 | 0.274 ± 0.018 | 0.316 ± 0.017 | 0.402 ± 0.016 | 0.0923 ± 0.012 | 0.0651 ± 0.018 | 0.0868 ± 0.021 | 0.0959 ± 0.022
20 | FIMHRIFMALVI | 0.386 ± 0.055 | 0.415 ± 0.03 | 0.381 ± 0.042 | 0.4786 ± 0.0006 | 0.29 ± 0.017 | 0.253 ± 0.025 | 0.359 ± 0.0092 | 0.341 ± 0.14

Row | Sequence | protein stability index (Saccharomyces cerevisiae [1]; [3]) | protein stability index (Saccharomyces cerevisiae [1]; [4]) | protein stability index (Saccharomyces cerevisiae [1]; [5]) | protein stability index (Saccharomyces cerevisiae [1]; [6]) | protein stability index (Saccharomyces cerevisiae [1]; [7]) | protein stability index (Saccharomyces cerevisiae [1]; [8]) | protein stability index (Saccharomyces cerevisiae [1]; [9]) | protein stability index (Saccharomyces cerevisiae [2])
21 | HANPGTFGPCTR | 0.654 ± 0.019 | 0.7204 ± 0.006 | 0.645 ± 0.012 | 0.72 ± 0.0081 | 0.658 ± 0.019 | 0.6499 ± 0.0061 | 0.683 ± 0.017 | 0.696 ± 0.048
22 | SIQRKIRRMKEN | 0.559 ± 0.093 | 0.732 ± 0.046 | 0.699 ± 0.048 | 0.7 ± 0.014 | 0.355 ± 0.017 | 0.333 ± 0.054 | 0.566 ± 0.0026 | 0.4687 ± 0.0016
23 | AFFFCVVVLFSF | 0.194 ± 0.0078 | 0.233 ± 0.013 | 0.171 ± 0.027 | 0.289 ± 0.015 | 0.178 ± 0.018 | 0.176 ± 0.041 | 0.256 ± 0.054 | 0.182 ± 0.044
24 | PLSSHIPVHEAR | 0.659 ± 0.052 | 0.744 ± 0.035 | 0.699 ± 0.017 | 0.706 ± 0.011 | 0.674 ± 0.012 | 0.645 ± 0.025 | 0.6878 ± 0.0027 | 0.718 ± 0.025
25 | VECPWFCLGVLA | 0.336 ± 0.027 | 0.318 ± 0.018 | 0.278 ± 0.04 | 0.4359 ± 0.0013 | 0.2324 ± 0.001 | 0.284 ± 0.022 | 0.416 ± 0.0065 | 0.3848 ± 0.0018
26 | SYVVVFVIFCVG | 0.1826 ± 0.00046 | 0.281 ± 0.028 | 0.206 ± 0.03 | 0.3424 ± 0.0014 | 0.173 ± 0.0049 | 0.214 ± 0.015 | 0.301 ± 0.0081 | 0.224 ± 0.099
27 | RLINCIYVLMLP | 0.567 ± 0.042 | 0.569 ± 0.0072 | 0.412 ± 0.029 | 0.606 ± 0.0037 | 0.261 ± 0.015 | 0.274 ± 0.033 | 0.513 ± 0.024 | 0.398 ± 0.029
28 | TPPLPTTPTLNS | 0.641 ± 0.022 | 0.713 ± 0.022 | 0.718 ± 0.027 | 0.703 ± 0.021 | 0.722 ± 0.025 | 0.71 ± 0.011 | 0.684 ± 0.021 | 0.732 ± 0.025
29 | LFFSPRRLSPPT | 0.705 ± 0.024 | 0.7533 ± 0.0049 | 0.695 ± 0.03 | 0.778 ± 0.022 | 0.688 ± 0.019 | 0.695 ± 0.015 | 0.746 ± 0.022 | 0.748 ± 0.011
30 | PPSLFLLLKVFF | 0.321 ± 0.0034 | 0.362 ± 0.012 | 0.279 ± 0.037 | 0.458 ± 0.005 | 0.268 ± 0.0069 | 0.223 ± 0.023 | 0.357 ± 0.0065 | 0.3254 ± 0.0024
31 | LVVAVLKIIMSS | 0.13 ± 0.023 | 0.201 ± 0.00098 | 0.2 ± 0.033 | 0.349 ± 0.013 | 0.0697 ± 0.012 | 0.0742 ± 0.023 | 0.0596 ± 0.0031 | 0.124 ± 0.027
32 | RLIARFKILRCI | 0.259 ± 0.012 | 0.588 ± 0.011 | 0.559 ± 0.012 | 0.635 ± 0.0085 | 0.0618 ± 0.0034 | 0.0662 ± 0.0038 | 0.0702 ± 0.0014 | 0.0979 ± 0.064
33 | RRIKIRKQEYIS | 0.572 ± 0.13 | 0.696 ± 0.04 | 0.684 ± 0.029 | 0.719 ± 0.018 | 0.185 ± 0.0051 | 0.217 ± 0.023 | 0.459 ± 0.021 | 0.313 ± 0.029
34 | CFCVSVHVWLLM | 0.112 ± 0.028 | 0.238 ± 0.046 | 0.199 ± 0.038 | 0.342 ± 0.017 | 0.0493 ± 0.017 | 0.069 ± 0.018 | 0.105 ± 0.017 | 0.147 ± 0.04
35 | WFCCAQRGVIVG | 0.446 ± 0.018 | 0.452 ± 0.028 | 0.336 ± 0.024 | 0.502 ± 0.0087 | 0.311 ± 0.011 | 0.336 ± 0.026 | 0.478 ± 0.0083 | 0.405 ± 0.012
36 | LFFLSASFFFFF | 0.458 ± 0.011 | 0.554 ± 0.0066 | 0.449 ± 0.034 | 0.547 ± 0.0075 | 0.222 ± 0.0092 | 0.207 ± 0.033 | 0.356 ± 0.067 | 0.289 ± 0.0064
37 | CWYRAVSIQYVL | 0.435 ± 0.027 | 0.53 ± 0.025 | 0.367 ± 0.0057 | 0.466 ± 0.021 | 0.26 ± 0.03 | 0.272 ± 0.027 | 0.412 ± 0.0089 | 0.306 ± 0.015
38 | IWVWMLSVWLGG | 0.303 ± 0.016 | 0.3731 ± 0.002 | 0.291 ± 0.021 | 0.409 ± 0.022 | 0.273 ± 0.021 | 0.288 ± 0.017 | 0.407 ± 0.018 | 0.349 ± 0.013
39 | LLGGRVLWAWRV | 0.653 ± 0.045 | 0.689 ± 0.052 | 0.626 ± 0.016 | 0.737 ± 0.019 | 0.155 ± 0.026 | 0.199 ± 0.022 | 0.3907 ± 0.0025 | 0.376 ± 0.022
